Measurements published in patent publication US9777300 (University of California, dated 2017).

Experiments:
[1] = molecular target: T1, E. coli FhuA, outer membrane iron transporter protein (E. coli, UniProt P06971 34-747); assay: fluorescence microscopy, live E. coli cells expressing FhuA, 50 nM His-tagged pb5, detected with fluorescent anti-His antibody
T1 construct: whole, on cells; also called outer membrane iron-transporter (E. coli)
T1 sequence: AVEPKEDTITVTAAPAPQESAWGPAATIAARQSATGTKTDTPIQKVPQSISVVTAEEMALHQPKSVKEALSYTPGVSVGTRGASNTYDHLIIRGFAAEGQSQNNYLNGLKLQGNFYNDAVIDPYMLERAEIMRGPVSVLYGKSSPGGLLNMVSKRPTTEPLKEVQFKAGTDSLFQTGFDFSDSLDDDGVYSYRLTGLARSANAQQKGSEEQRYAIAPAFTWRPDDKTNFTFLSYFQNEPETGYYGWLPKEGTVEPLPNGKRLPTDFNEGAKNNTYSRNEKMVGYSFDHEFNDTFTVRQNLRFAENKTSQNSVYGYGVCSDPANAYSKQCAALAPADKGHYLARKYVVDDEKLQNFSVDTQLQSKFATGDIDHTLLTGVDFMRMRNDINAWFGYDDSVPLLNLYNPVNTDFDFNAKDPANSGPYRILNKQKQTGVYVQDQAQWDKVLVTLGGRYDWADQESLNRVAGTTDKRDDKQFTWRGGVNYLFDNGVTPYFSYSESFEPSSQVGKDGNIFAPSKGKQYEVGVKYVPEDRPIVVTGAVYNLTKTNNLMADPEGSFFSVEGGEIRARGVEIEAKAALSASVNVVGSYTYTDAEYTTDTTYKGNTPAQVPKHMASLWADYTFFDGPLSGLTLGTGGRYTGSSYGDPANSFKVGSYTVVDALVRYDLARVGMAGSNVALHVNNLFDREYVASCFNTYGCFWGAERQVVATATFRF

[2] = molecular target: T1, E. coli FhuA, outer membrane iron …; assay: flow cytometry titration with 2.5 to 20 nM Qdot-pb5, FhuA on R. eutropha cells against FhuA on E. coli cells (FIG. 19)
[3] = molecular target: T1, E. coli FhuA, outer membrane iron …; assay: flow cytometry, FhuA on E. coli cells against FhuA on R. eutropha cells (FIG. 14E)

B1: Bacteriophage T5 protein pb5 expressed in E. coli with a 6x-His tag (ligand)
chain: MSFFAGKLNNKSILSLRRGSGGDTNQHINPDSQTIFHSDMSHVIITETHSTGLRLDQGAGDYYWSEMPSRVTQLHNNDPNRVVLTEIEFSDGSRHMLSGMSMGVGAKAYGIINPQIMSQGGLKTQITASADLSLDVGYFNTGTSGTIPQKLRDGTGCQHMFGAFSGRRGFASSAMYLGGAALYKSAWSGSGYVVADAGTLTIPSDYVRHPGARNFGFNAIYVRGRSCNRVLYGMEGPNYTTGGAVQGASSSGALNFTYNPSNPESPKYSVGFARADPTNYAYWESMGDPNDSANGPIGIYSEHLGIYPSKITWYVTNLVYNGSGYNIDGGLFNGNDIKLSPREFIIKGVNVNNTSWKFINFIEKNFNVGNRADFRDVGCNLSKDSPSTGISGIATFGLPTTESNNAPSIKGGNVGGLHANVVSIYNFLPSASWYVSSNPPKIGNNYGDVWSENLLPLRLLGGSGSTILSGNIVFQGNGSVHVGTVGLDLNSSRNGAIVCTMEFIDDTWLSAGGIGCFNPTEMLSQGAEYGDSRFRIGGNTINKKLHQILSLPAGEYVPFFTIKGTVVNACKLQAAAYNPTPYWVSGLPGSVGQTGYYTLTYYMRNDGNNNISIWLDSSMSNIIGMKACLPNIKLIIQRLT
notes: it is placed C-terminal here only because of the label 'pb5-His'; also called pb5-His; His-pb5; not shown: 6x-His tag
binding result [1]: binds

B2: Qdot-pb5 conjugate (CdSe/ZnS quantum dots conjugated to pb5 by carbodiimide coupling) (other)
chain: B1 chain
modifications: CdSe/ZnS quantum dot (Qdot) coupled by carbodiimide (EDC) chemistry; site of coupling and number of pb5 per Qdot not stated
notes: Two colours were used in the pulse labeling (Qdot532-pb5, Qdot602-pb5); the protein part is the same purified His-tagged pb5; also called Qdot-pb5s; Qdot532-pb5; not shown: 6x-His tag of the purified pb5
fold lower total binding, R. eutropha cells against E. coli cells [2]: ~3.4 times lower
fold binding efficiency, E. coli cells against R. eutropha cells [3]: ~3.4 fold
